Test results as given in IntAct's records for PubMed 29892012.

B1: Protein VAC14 homolog (Homo sapiens), Q08AM6 (parent)
chain: MNPEKDFAPLTPNIVRALNDKLYEKRKVAALEIEKLVREFVAQNNTVQIKHVIQTLSQEFALSQHPHSRKGGLIGLAACSIALGKDSGLYLKELIEPVLTCFNDADSRLRYYACEALYNIVKVARGAVLPHFNVLFDGLSKLAADPDPNVKSGSELLDRLLKDIVTESNKFDLVSFIPLLRERIYSNNQYARQFIISWILVLESVPDINLLDYLPEILDGLFQILGDNGKEIRKMCEVVLGEFLKEIKKNPSSVKFAEMANILVIHCQTTDDLIQLTAMCWMREFIQLAGRVMLPYSSGILTAVLPCLAYDDRKKSIKEVANVCNQSLMKLVTPEDDELDELRPGQRQAEPTPDDALPKQEGTASGGPDGSCDSSFSSGISVFTAASTERAPVTLHLDGIVQVLNCHLSDTAIGMMTRIAVLKWLYHLYIKTPRKMFRHTDSLFPILLQTLSDESDEVILKDLEVLAEIASSPAGQTDDPGPLDGPDLQASHSELQVPTPGRAGLLNTSGTKGLECSPSTPTMNSYFYKFMINLLKRFSSERKLLEVRGPFIIRQLCLLLNAENIFHSMADILLREEDLKFASTMVHALNTILLTSTELFQLRNQLKDLKTLESQNLFCCLYRSWCHNPVTTVSLCFLTQNYRHAYDLIQKFGDLEVTVDFLAEVDKLVQLIECPIFTYLRLQLLDVKNNPYLIKALYGLLMLLPQSSAFQLLSHRLQCVPNPELLQTEDSLKAAPKSQKADSPSIDYAELLQHFEKVQNKHLEVRHQRSGRGDHLDRRVVL
partner: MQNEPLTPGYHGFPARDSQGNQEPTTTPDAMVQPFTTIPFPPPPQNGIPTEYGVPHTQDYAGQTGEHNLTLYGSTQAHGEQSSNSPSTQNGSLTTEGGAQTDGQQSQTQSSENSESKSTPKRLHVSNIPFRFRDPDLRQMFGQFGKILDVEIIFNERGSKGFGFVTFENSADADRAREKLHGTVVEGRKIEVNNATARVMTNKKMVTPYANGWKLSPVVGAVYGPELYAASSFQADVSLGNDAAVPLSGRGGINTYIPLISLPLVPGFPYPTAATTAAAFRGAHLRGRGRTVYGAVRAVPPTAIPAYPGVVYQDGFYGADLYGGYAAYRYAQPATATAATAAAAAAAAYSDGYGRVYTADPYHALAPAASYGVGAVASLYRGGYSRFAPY
B2: TBC1 domain family member 22B (Homo sapiens), Q9NU19 (parent)
chain: MAAENSKQFWKRSAKLPGSIQPVYGAQHPPLDPRLTKNFIKERSKVNTVPLKNKKASSFHEFARNTSDAWDIGDDEEEDFSSPSFQTLNSKVALATAAQVLENHSKLRVKPERSQSTTSDVPANYKVIKSSSDAQLSRNSSDTCLRNPLHKQQSLPLRPIIPLVARISDQNASGAPPMTVREKTRLEKFRQLLSSQNTDLDELRKCSWPGVPREVRPITWRLLSGYLPANTERRKLTLQRKREEYFGFIEQYYDSRNEEHHQDTYRQIHIDIPRTNPLIPLFQQPLVQEIFERILFIWAIRHPASGYVQGINDLVTPFFVVFLSEYVEEDVENFDVTNLSQDMLRSIEADSFWCMSKLLDGIQDNYTFAQPGIQKKVKALEELVSRIDEQVHNHFRRYEVEYLQFAFRWMNNLLMRELPLRCTIRLWDTYQSEPEGFSHFHLYVCAAFLIKWRKEILDEEDFQGLLMLLQNLPTIHWGNEEIGLLLAEAYRLKYMFADAPNHYRR
partner: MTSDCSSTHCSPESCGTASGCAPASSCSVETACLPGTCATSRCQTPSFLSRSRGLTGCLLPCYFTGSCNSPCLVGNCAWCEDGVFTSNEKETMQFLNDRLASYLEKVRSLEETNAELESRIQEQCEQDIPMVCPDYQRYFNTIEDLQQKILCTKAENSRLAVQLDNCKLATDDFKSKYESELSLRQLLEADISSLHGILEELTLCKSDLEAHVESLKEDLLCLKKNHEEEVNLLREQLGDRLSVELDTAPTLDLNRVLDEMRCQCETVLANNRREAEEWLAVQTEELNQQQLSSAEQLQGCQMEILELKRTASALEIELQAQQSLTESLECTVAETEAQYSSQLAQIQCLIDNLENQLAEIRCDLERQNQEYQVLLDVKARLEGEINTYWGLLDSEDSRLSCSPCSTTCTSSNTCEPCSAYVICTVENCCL
B3: Atos homolog protein B (Homo sapiens), Q7L5A3 (parent)
chain: MRHVQAEPSPSSEPEAGPSQPPVRQGALQGGLLMGYSPAGGATSPGVYQVSIFSPPAGTSEPHRALKRQAPSTEGPRELKRGPGLGAREGLPPEEPSTVGLLGPEGPGLGLGVASQHFSHRGLCVVEQRSSVTSSWTSGAWSPPCPPSNASCNTLHTRDWASPDPGGQGSLGESPGPAPPGQLHTLDTDLHSLAQIGGKSPVAGVGNGGSLWPRESPGTANGHSPEHTPPGPGPPGPCPTKRRLLPAGEAPDVSSEEEGPAPRRRRGSLGHPTAANSSDAKATPFWSHLLPGPKEPVLDPTDCGPMGRRLKGARRLKLSPLRSLRKGPGLLSPPSASPVPTPAVSRTLLGNFEESLLRGRFAPSGHIEGFTAEIGASGSYCPQHVTLPVTVTFFDVSEQNAPAPFLGIVDLNPLGRKGYSVPKVGTVQVTLFNPNQTVVKMFLVTFDFSDMPAAHMTFLRHRLFLVPVGEEGNANPTHRLLCYLLHLRFRSSRSGRLSLHGDIRLLFSRRSLELDTGLPYELQAVTEAPHNPRYSPLP
partner: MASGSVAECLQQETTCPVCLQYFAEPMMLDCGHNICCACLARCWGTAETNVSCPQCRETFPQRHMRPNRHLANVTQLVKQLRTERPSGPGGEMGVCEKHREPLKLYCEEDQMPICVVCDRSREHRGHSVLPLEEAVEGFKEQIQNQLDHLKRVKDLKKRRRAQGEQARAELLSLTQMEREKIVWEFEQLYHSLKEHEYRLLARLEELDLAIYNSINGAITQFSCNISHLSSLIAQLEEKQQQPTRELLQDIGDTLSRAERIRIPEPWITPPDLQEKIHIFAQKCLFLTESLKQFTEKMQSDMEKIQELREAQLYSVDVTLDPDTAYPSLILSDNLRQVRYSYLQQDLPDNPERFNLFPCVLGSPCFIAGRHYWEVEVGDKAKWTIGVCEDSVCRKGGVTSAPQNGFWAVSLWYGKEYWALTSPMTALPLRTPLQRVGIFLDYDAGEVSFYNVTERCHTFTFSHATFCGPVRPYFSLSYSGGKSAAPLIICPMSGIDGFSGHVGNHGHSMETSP
B4: E3 ubiquitin-protein ligase RNF31 (Homo sapiens), Q96EP0 (parent)
chain: MPGEEEERAFLVAREELASALRRDSGQAFSLEQLRPLLASSLPLAARYLQLDAARLVRCNAHGEPRNYLNTLSTALNILEKYGRNLLSPQRPRYWRGVKFNNPVFRSTVDAVQGGRDVLRLYGYTEEQPDGLSFPEGQEEPDEHQVATVTLEVLLLRTELSLLLQNTHPRQQALEQLLEDKVEDDMLQLSEFDPLLREIAPGPLTTPSVPGSTPGPCFLCGSAPGTLHCPSCKQALCPACDHLFHGHPSRAHHLRQTLPGVLQGTHLSPSLPASAQPRPQSTSLLALGDSSLSSPNPASAHLPWHCAACAMLNEPWAVLCVACDRPRGCKGLGLGTEGPQGTGGLEPDLARGRWACQSCTFENEAAAVLCSICERPRLAQPPSLVVDSRDAGICLQPLQQGDALLASAQSQVWYCIHCTFCNSSPGWVCVMCNRTSSPIPAQHAPRPYASSLEKGPPKPGPPRRLSAPLPSSCGDPEKQRQDKMREEGLQLVSMIREGEAAGACPEEIFSALQYSGTEVPLQWLRSELPYVLEMVAELAGQQDPGLGAFSCQEARRAWLDRHGNLDEAVEECVRTRRRKVQELQSLGFGPEEGSLQALFQHGGDVSRALTELQRQRLEPFRQRLWDSGPEPTPSWDGPDKQSLVRRLLAVYALPSWGRAELALSLLQETPRNYELGDVVEAVRHSQDRAFLRRLLAQECAVCGWALPHNRMQALTSCECTICPDCFRQHFTIALKEKHITDMVCPACGRPDLTDDTQLLSYFSTLDIQLRESLEPDAYALFHKKLTEGVLMRDPKFLWCAQCSFGFIYEREQLEATCPQCHQTFCVRCKRQWEEQHRGRSCEDFQNWKRMNDPEYQAQGLAMYLQENGIDCPKCKFSYALARGGCMHFHCTQCRHQFCSGCYNAFYAKNKCPEPNCRVKKSLHGHHPRDCLFYLRDWTALRLQKLLQDNNVMFNTEPPAGARAVPGGGCRVIEQKEVPNGLRDEACGKETPAGYAGLCQAHYKEYLVSLINAHSLDPATLYEVEELETATERYLHVRPQPLAGEDPPAYQARLLQKLTEEVPLGQSIPRRRK
partner: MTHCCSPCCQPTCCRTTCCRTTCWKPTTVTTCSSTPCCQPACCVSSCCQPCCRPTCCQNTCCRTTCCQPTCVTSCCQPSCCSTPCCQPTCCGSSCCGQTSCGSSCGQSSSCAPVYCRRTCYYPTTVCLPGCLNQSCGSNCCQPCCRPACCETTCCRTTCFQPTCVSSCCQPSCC
B5: TBC1 domain family member 22B (Homo sapiens), Q9NU19 (parent)
chain: B2 chain
partner: B3 partner
B6: Genetic suppressor element 1 (Homo sapiens), Q14687 (parent)
chain: MKGMSHEPKSPSLGMLSTATRTTATVNPLTPSPLNGALVPSGSPATSSALSAQAAPSSSFAAALRKLAKQAEEPRGSSLSSESSPVSSPATNHSSPASTPKRVPMGPIIVPPGGHSVPSTPPVVTIAPTKTVNGVWRSESRQDAGSRSSSGGRERLIVEPPLPQEKAGGPAIPSHLLSTPYPFGLSPSSVVQDSRFPPLNLQRPVHHVVPPSTVTEDYLRSFRPYHTTDDLRMSSLPPLGLDPATAAAYYHPSYLAPHPFPHPAFRMDDSYCLSALRSPFYPIPTPGSLPPLHPSAMHLHLSGVRYPPELSHSSLAALHSERMSGLSAERLQMDEELRREREREREREREREADREREKEREREREKEREQEKEREREKERERELERQREQRAREKELLAAKALEPSFLPVAELHGLRGHATEERGKPSEQLTPTRAEKLKDAGLQAPKPVQHPLHPVPTPHHTVPSLISNHGIFSLPSSSAATALLIQRTNEEEKWLARQRRLRQEKEDRQSQVSEFRQQVLEQHLDMGRPPVPAEAEHRPESTTRPGPNRHEPGGRDPPQHFGGPPPLISPKPQLHAAPTALWNPVSLMDNTLETRRAESHSLHSHPAAFEPSRQAAVPLVKVERVFCPEKAEEGPRKREPAPLDKYQPPPPPPREGGSLEHQPFLPGPGPFLAELEKSTQTILGQQRASLPQAATFGELSGPLKPGSPYRPPVPRAPDPAYIYDEFLQQRRRLVSKLDLEERRRREAQEKGYYYDLDDSYDESDEEEVRAHLRCVAEQPPLKLDTSSEKLEFLQLFGLTTQQQKEELVAQKRRKRRRMLRERSPSPPTIQSKRQTPSPRLALSTRYSPDEMNNSPNFEEKKKFLTIFNLTHISAEKRKDKERLVEMLRAMKQKALSAAVADSLTNSPRDSPAVSLSEPATQQASLDVEKPVGVAASLSDIPKAAEPGKLEQVRPQELSRVQELAPASGEKARLSEAPGGKKSLSMLHYIRGAAPKDIPVPLSHSTNGKSKPWEPFVAEEFAHQFHESVLQSTQKALQKHKGSVAVLSAEQNHKVDTSVHYNIPELQSSSRAPPPQHNGQQEPPTARKGPPTQELDRDSEEEEEEDDEDGEDEEEVPKRKWQGIEAVFEAYQEHIEEQNLERQVLQTQCRRLEARHYSLSLTAEQLSHSVAELRSQKQKMVSERERLQAELDHLRKCLALPAMHWPRGYLKGYPR
partner: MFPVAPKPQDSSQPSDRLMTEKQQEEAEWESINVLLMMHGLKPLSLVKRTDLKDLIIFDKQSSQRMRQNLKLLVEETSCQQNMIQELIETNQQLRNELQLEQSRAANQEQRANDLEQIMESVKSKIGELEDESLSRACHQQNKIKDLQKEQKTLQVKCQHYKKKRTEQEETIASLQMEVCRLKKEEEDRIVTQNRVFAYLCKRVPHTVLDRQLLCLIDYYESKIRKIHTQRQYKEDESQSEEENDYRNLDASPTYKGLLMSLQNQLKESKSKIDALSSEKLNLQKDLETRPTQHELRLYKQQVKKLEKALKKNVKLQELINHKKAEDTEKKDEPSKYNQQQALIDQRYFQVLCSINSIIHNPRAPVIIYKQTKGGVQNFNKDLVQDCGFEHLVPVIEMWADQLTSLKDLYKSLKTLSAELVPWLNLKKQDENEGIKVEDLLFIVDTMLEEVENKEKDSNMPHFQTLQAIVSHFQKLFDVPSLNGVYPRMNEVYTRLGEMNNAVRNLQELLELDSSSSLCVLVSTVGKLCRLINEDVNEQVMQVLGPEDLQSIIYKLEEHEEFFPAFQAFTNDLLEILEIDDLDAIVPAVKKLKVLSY

Variants of: B1
Conditions: with rfox2_human RBFOX2, O43251

effect of a mutation on the interaction | Variant
with no effect | A127S

Variants of: B2
Conditions: with KRT40, Q6A162

effect of a mutation on the interaction | Variant
disrupting interaction strength | A349T

Variants of: B3
Conditions: with tri27_human TRIM27, P14373

effect of a mutation on the interaction | Variant
disrupting interaction strength | C381Y

Variants of: B4
Conditions: with kra92_human KRTAP9-2, Q9BYQ4

effect of a mutation on the interaction | Variant
with no effect | R646W

Variants of: B5
Conditions: with tri27_human TRIM27, P14373

effect of a mutation on the interaction | Variant
disrupting interaction strength | A349T

Variants of: B6
Conditions: with cep70_human CEP70, Q8NHQ1

effect of a mutation on the interaction | Variant
with no effect | R503Q
